Test results published in PMC12141571.
Like-named read-outs stand apart in the source and are kept apart here.

Substance | other (phosphorylation at T188) | enzymatic_activity (phosphorylation at T188) | other results
Erk2: T188A (HEK293 + EGF; TEY phosphorylation) | increases | – | –
Erk1: T207A (HEK293, no EGF; TEY phosphorylation) | – | – | other (phosphorylation at T207): increases, 2–6 fold
Erk2: R65H+T188E, R65H+T188D (recombinant; dual TEY autophosphorylation) | decreases | – | –
Erk1: R84H+T207A vs R84H (HEK293, no EGF; TEY phosphorylation) | – | – | other (phosphorylation at T207): increases
Erk2: T188A (recombinant; dual TEY phosphorylation by MEK1EE in vitro) | decreases, 2.2% doubly phosphorylated (Erk2WT 12.5%) | – | –
Erk1: T207E, T207D (HEK293 + EGF; TEY phosphorylation) | – | – | other (phosphorylation at T207): increases
Erk2: T188G | – | decreases, to about 6% | –
Erk2: T188E, T188D (HEK293 + EGF; TEY phosphorylation) | increases | – | –
Erk1: T207A (recombinant protein, in vitro kinase assay) | – | – | enzymatic_activity (phosphorylation at T207): abolishes
Erk2: T188S | – | increases | –
Erk1: T207A (HEK293 + EGF; TEY phosphorylation) | – | – | other (phosphorylation at T207): increases
Erk2: T188N | – | abolishes | –
Erk2: R65H+T188A vs R65H (HEK293, no EGF; TEY phosphorylation) | increases | – | –
Erk2: T188A (HEK293, no EGF; TEY phosphorylation) | increases, 2–6 fold | – | –
Erk1: T207E, T207D (recombinant protein, in vitro kinase assay) | – | – | enzymatic_activity (phosphorylation at T207): abolishes
Erk2: T188A (recombinant; spontaneous Tyr185 autophosphorylation) | increases, 84% monophosphorylated on Tyr185 | – | –
Erk2: T188A (recombinant protein, in vitro kinase assay) | – | abolishes | –
Erk2: T188E, T188D (recombinant protein, in vitro kinase assay) | – | abolishes | –
Erk2: T188C | – | no change | –
Erk2: T188D (recombinant; dual TEY phosphorylation by MEK1EE in vitro) | decreases, 2.2% dually phosphorylated (Erk2WT 12.5%) | – | –
